According to PMC13011415:

Biological target: 1-acyl-sn-glycerol-3-phosphate acyltransferase alpha (AGPAT1), endogenous in human cells (human (endogenous in Huh7, HAP1, ERMS)) (UniProt Q99943)
Assay: immunostaining of cells or tissue

UniProt Q99943, sequence (Q99943 27-283): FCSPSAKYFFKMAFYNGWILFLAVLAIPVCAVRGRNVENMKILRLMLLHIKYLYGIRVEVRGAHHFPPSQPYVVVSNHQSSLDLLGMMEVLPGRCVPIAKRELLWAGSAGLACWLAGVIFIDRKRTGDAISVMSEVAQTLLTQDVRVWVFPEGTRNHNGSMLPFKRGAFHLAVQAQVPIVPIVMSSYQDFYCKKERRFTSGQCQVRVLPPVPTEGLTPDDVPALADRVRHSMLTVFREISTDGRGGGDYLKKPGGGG

## Chikungunya virus (CHIKV) particles, sucrose gradient-purified, strain IND-06-Guj (complex)
  reduction of CHIKV binding (MIFD) in AGPAT1 KO against WT HAP1 cells: 85%
